Measurements published in publication PMC12654856, “Exploring the Scope of Functionalized N-Acylneuraminic Acid β-Methyl Glycosides as Inhibitors of Neisseria meningitidis CMP-Sialic Acid Synthetase” (Molecules, 2025).

Legend:
[1] = test system: Nc1ccn([C@@H]2O[C@H](COP(=O)(O)OP(=O)(O)OP(=O)(O)O)[C@@H](O)[C@H]2O)c(=O)n1; assay: purified protein; details: Mg2+ CTP binds prior to Neu5Ac
[2] = test system: CC(=O)N[C@H]1[C@H]([C@H](O)[C@H](O)CO)OC(O)(C(=O)O)C[C@@H]1O; assay: purified protein; details: Mg2+ active site; binds after CTP

With “NmB CMP-sialic acid synthetase (CSS) (Neisseria meningitidis MC58)” the Km [1] was 22 µM and the Km [2] was 37 µM.
